US20260167684A1 (MERIDA BIOSCIENCES, published 2026)

Assays:
human C1q = target: T1, human C1q (human, UniProt P02745 23-245; P02746 28-253; P02747 29-245); assay: ELISA (n=2), serial dilutions of the molecule coated on the plate, human C1q at 5 µg/mL, anti-C1q HRP detection
T1 construct: also called complement (C1q)
Procedure: An IgG4 was used as a negative control.
Varying dilutions of each exemplary molecule or one of the controls were tested for binding to C1q by ELISA where serial dilutions of molecules or controls were coated on a plate (at 0.01 μg/mL, 0.1 μg/mL, 1.0 μg/mL, 10.0 μg/mL, 100.0 μg/mL, and 1000 μg/mL) overnight at 4 C. After blocking and subsequent wash steps, human C1q at 5 μg/mL was added to the ELISA plate for 1 hour at room temperature. The plate was washed and a sheep polyclonal anti-C1q HRP antibody at 1:200 dilution was added and incubated for an additional 1 hour. Development of the ELISA plate was carried out by addition of TMB. Color development was then stopped with addition of 3N HCl. Plate absorbance was read at 450 nm using a plate ready.

FcγRIIB [1] = target: T2, FcγRIIB (human, UniProt P31994 46-217, limits assumed); assay: SPR, molecule captured on the sensor chip, FcγRIIB as analyte; steady state plot of response against analyte concentration
T2 construct: Soluble protein used in SPR
T2 sequence (looked up): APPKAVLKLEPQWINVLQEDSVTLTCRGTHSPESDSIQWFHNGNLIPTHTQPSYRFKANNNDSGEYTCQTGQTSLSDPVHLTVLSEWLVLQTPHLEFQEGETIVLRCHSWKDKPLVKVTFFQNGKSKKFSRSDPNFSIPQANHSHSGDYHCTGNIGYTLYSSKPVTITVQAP

[2] = target: T3, FcγRIIB expressed on cells (CHO-FcγRIIB+ cells; primary human cells that express FcγRIIB) (human, UniProt P31994 43-310); assay: flow cytometry, CHO cells expressing FcγRIIB, molecule pre-complexed with M22-PE at 1:1 or 4:1 molar ratio, with and without anti-FcγRIIB antibody 2B6
T3 construct: whole, on cells; also called FcγRIIB-expressing CHO cells
T3 sequence (looked up): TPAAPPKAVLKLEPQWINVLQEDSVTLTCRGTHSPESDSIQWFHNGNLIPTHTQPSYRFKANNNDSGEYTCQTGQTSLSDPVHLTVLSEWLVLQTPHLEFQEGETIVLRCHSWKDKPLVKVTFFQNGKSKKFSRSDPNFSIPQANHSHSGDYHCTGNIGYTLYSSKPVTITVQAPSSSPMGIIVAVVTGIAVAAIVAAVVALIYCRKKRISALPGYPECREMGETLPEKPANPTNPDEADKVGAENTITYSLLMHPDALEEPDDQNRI
Procedure: Cells expressing FcγRIIB are seeded in a 96-well plate and stained with Live/Dead Violet Fixable Dye. Next, the pre-complexed molecule and autoantibody are incubated with the cells at various concentrations at either 4C (to assess binding) or 37C (to assess uptake). After incubation, cells are washed with PBS (binding) or acidic media to remove surface-bound complexes (uptake). Cellular fluorescence is determined by flow cytometry.

FcγRIIB [3] = target: T2, FcγRIIB; assay: SPR; molecule captured on CM5 chip, FcγR as analyte; steady-state fit
Procedure: (§1) Binding assays using SPR were performed to determine the binding affinity of the exemplary molecules. Molecules were captured on a CM5 SPR chip. Increasing concentrations of FcγR analyte (FcγRIIA167H, FcγRIIA167R or FcγRIIB) were subsequently injected over the captured molecules and a single dissociation performed using single cycle kinetics. The data was then analyzed using steady state analysis which is suitable for low affinity interactions. In particular, a plot of response at equilibrium against the molecule concentration was generated.

FcγRIIA167R [4] = target: T4, FcγRIIA167R (UniProt P12318 36-218); assay: as above
T4 construct: Soluble protein used in SPR
T4 sequence (looked up): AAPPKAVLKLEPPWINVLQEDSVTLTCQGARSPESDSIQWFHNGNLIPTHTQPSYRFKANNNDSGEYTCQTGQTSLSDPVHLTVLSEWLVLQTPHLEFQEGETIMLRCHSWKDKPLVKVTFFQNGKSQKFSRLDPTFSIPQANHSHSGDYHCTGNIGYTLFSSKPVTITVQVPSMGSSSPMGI
Procedure: as §1

FcγRIIA167H [5] = target: T5, FcγRIIA167H (UniProt P12318 36-218); assay: SPR, molecule captured on sensor chip, FcγRIIA167H as analyte, steady-state plot of response against concentration
T5 construct: Soluble protein used in SPR
T5 sequence (looked up): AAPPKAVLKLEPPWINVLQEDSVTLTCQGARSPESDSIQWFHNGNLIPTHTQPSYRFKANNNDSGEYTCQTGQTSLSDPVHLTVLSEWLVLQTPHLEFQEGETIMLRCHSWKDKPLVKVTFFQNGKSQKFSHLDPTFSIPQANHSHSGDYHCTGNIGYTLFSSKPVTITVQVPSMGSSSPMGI
Procedure: as §1

FcγRIIA167H [6] = target: T5, FcγRIIA167H; assay: SPR; molecule captured on CM5 chip, FcγR as analyte; steady-state fit
Procedure: as §1

FcγRIIA167R [7] = target: T4, FcγRIIA167R; assay: SPR, molecule captured on the sensor chip, FcγRIIA167R as analyte
Procedure: as §1

FcγRIIA167H [8] = target: T5, FcγRIIA167H; assay: SPR, molecule captured on the sensor chip, FcγRIIA167H as analyte
Procedure: as §1

T1 sequence (P02745 23-245 limits assumed, chain 1 of 3): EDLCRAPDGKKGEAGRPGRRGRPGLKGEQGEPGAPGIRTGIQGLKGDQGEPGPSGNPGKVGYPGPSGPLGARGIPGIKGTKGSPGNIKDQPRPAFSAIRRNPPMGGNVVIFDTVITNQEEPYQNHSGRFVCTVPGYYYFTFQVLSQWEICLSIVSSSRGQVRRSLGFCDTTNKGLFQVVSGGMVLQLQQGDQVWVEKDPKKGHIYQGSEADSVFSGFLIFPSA
T1 sequence (P02746 28-253 limits assumed, chain 2 of 3): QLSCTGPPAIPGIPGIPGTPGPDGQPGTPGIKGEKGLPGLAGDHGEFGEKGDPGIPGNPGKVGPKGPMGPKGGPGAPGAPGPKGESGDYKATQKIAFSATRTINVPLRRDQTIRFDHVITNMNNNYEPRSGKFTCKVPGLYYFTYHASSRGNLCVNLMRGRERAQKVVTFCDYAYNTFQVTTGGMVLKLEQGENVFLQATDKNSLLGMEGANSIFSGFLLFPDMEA
T1 sequence (P02747 29-245 limits assumed, chain 3 of 3): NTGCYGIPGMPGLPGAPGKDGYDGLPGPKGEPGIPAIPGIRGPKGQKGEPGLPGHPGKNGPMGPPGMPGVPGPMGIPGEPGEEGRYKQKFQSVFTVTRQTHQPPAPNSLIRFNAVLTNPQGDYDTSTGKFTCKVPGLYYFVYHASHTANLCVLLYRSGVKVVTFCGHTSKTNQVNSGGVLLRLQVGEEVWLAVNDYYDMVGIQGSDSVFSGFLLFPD

B1: Variant E3 (Fc fusion)
chain 1: MGCSSPPCECHQEEDFRVTCKDIQRIPSLPPSTQTLKLIETHLRTIPSHAFSNLPNISRIYVSIDVTLQQLESHSFYNLSKVTHIEIRNTPNLTYIDPDALKELPLLKFLGIFNTGLKMFPPLTKVYSTDIFFILEITDNPYMTSIPRNAFQGLCNETLTLKLYNNGFTSVQGYAFNGTKLDAVYLNKNKYLTVIDKDAFGGVYSGPSLLDVSQTSVTALPSKGLEHLKELRARNTWTLDKTHTCPPCPAPELLGGDSVFLFPPKPKDTLMISRTPEVTCVVVDVSHEDPEVKFNWYVDGVEVHNAKTKPREEQYNSTYRVVSVLTVLHQDWLNGKEYKCKVSNKALPAPIEKTISKAKGQPREPQVYTLPPCRDELTKNQVSLWCLVKGFYPSDIAVEWESNGQPENNYKTTPPVLDSDGSFFLYSKLTVDKSRWQQGNVFSCSVLHEALHSHYTQKSLSLSPGK
chain 2: DKTHTCPPCPAPELLGGDSVFLFPPKPKDTLMISRTPEVTCVVVDVSHEDPEVKFNWYVDGVEVHNAKTKPREEQYNSTYRVVSVLTVLHQDWLNGKEYKCKVSNKALPAPIEKTISKAKGQPREPQVCTLPPSRDELTKNQVSLSCAVKGFYPSDIAVEWESNGQPENNYKTTPPVLDSDGSFFLVSKLTVDKSRWQQGNVFSCSVLHEALHSHYTQKSLSLSPGK
notes: Knob-in-hole heterodimer; also called TSHR260 2P2R huIgG1 Fc P238D/LS; TSHR260 2P2R huIgG1 with P238D and LS
binding result (human C1q): no binding (tested: 100 µg/mL) | binding result (FcγRIIB [1]): binds | binding result [2]: binds

B2: Variant G11 (Fc fusion)
chain 1: MGCSSPPCECHQEEDFRVTCKDIQRIPSLPPSTQTLKLIETHLRTIPSHAFSNLPNISRIYVSIDVTLQQLESHSFYNLSKVTHIEIRNTPNLTYIDPDALKELPLLKFLGIFNTGLKMFPPLTKVYSTDIFFILEITDNPYMTSIPRNAFQGLCNETLTLKLYNNGFTSVQGYAFNGTKLDAVYLNKNKYLTVIDKDAFGGVYSGPSLLDVSQTSVTALPSKGLEHLKELRARNTWTLDKTHTCPPCPAPELLGGDSVFLFPPKPKDTLMISRTPEVTCVVVDVSHEEGEVKFNWYVDGVEVHNAKTKPREEQYNSTYRVVSVLTVLHQDWLNGKEYKCKVSNKALPAPIEKTISKAKGQPREPQVYTLPPCREEMTKNQVSLWCLVKGFYPSDIAVEWESNGQPENNYKTTPPVLDSDGSFFLYSKLTVDKSRWQQGNVFSCSVMHEALHNHYTQKSLSLSPGK
chain 2: DKTHTCPPCPAPELLGGDSVFLFPPKPKDTLMISRTPEVTCVVVDVSHEEGEVKFNWYVDGVEVHNAKTKPREEQYNSTYRVVSVLTVLHQDWLNGKEYKCKVSNKALPAPIEKTISKAKGQPREPQVCTLPPSREEMTKNQVSLSCAVKGFYPSDIAVEWESNGQPENNYKTTPPVLDSDGSFFLVSKLTVDKSRWQQGNVFSCSVMHEALHNHYTQKSLSLSPGK
notes: Knob-in-hole heterodimer; also called TSHR260 2P2R huIgG1 Fc P238D/D270E/P271G
Kd (FcγRIIB [3]): 987 nM | Kd (FcγRIIA167R [4]): 3490 nM | binding result (FcγRIIA167H [5]): no binding (tested: about 2.4e-6 M)

B3: Variant G14 (Fc fusion)
chain 1: MGCSSPPCECHQEEDFRVTCKDIQRIPSLPPSTQTLKLIETHLRTIPSHAFSNLPNISRIYVSIDVTLQQLESHSFYNLSKVTHIEIRNTPNLTYIDPDALKELPLLKFLGIFNTGLKMFPPLTKVYSTDIFFILEITDNPYMTSIPRNAFQGLCNETLTLKLYNNGFTSVQGYAFNGTKLDAVYLNKNKYLTVIDKDAFGGVYSGPSLLDVSQTSVTALPSKGLEHLKELRARNTWTLDKTHTCPPCPAPELLGGPDVFLFPPKPKDTLMISRTPEVTCVVVDVSDEDPEVKFNWYVDGVEVHNAKTKPREEQYNSTYRVVSVLTVLHQDWLNGKEYKCKVSNKAWPAPIEKTISKAKGQPREPQVYTLPPCRDELTKNQVSLWCLVKGFYPSDIAVEWESNGQPENNYKTTPPVLDSDGSFFLYSKLTVDKSRWQQGNVFSCSVMHEALHNHYTQKSLSLSPGK
chain 2: DKTHTCPPCPAPELLGGPDVFLFPPKPKDTLMISRTPEVTCVVVDVSDEDPEVKFNWYVDGVEVHNAKTKPREEQYNSTYRVVSVLTVLHQDWLNGKEYKCKVSNKAWPAPIEKTISKAKGQPREPQVCTLPPSRDELTKNQVSLSCAVKGFYPSDIAVEWESNGQPENNYKTTPPVLDSDGSFFLVSKLTVDKSRWQQGNVFSCSVMHEALHNHYTQKSLSLSPGK
notes: Knob-in-hole heterodimer; also called TSHR260 2P2R huIgG1 Fc S239D/H268D/L328W
Kd (FcγRIIB [3]): 30.9 nM | Kd (FcγRIIA167R [4]): 4.32 nM | Kd (FcγRIIA167H [6]): 114 nM

B4: Variant G3 (Fc fusion)
chain 1: MGCSSPPCECHQEEDFRVTCKDIQRIPSLPPSTQTLKLIETHLRTIPSHAFSNLPNISRIYVSIDVTLQQLESHSFYNLSKVTHIEIRNTPNLTYIDPDALKELPLLKFLGIFNTGLKMFPPLTKVYSTDIFFILEITDNPYMTSIPRNAFQGLCNETLTLKLYNNGFTSVQGYAFNGTKLDAVYLNKNKYLTVIDKDAFGGVYSGPSLLDVSQTSVTALPSKGLEHLKELRARNTWTLDKTHTCPPCPAPVDFRDPLVFLFPPKPKDTLMISRTPEVTCVVVDVSPEDPEVKFNWYVDGVEVHNAKTKPQEEQYNGAYRVVSVLTVLHQDWLNGKEYKCKVSNKLAPHPIIKTISKAKGQPREPQVYTLPPCRDELTKNQVSLWCLVKGFYPSDIAVEWESNGQPENNYKTTPPVLDSDGSFFLYSKLTVDKSRWQQGNVFSCSVMHEALHNHYTQKSLSLSPGK
chain 2: DKTHTCPPCPAPVDFRDPLVFLFPPKPKDTLMISRTPEVTCVVVDVSPEDPEVKFNWYVDGVEVHNAKTKPQEEQYNGAYRVVSVLTVLHQDWLNGKEYKCKVSNKLAPHPIIKTISKAKGQPREPQVCTLPPSRDELTKNQVSLSCAVKGFYPSDIAVEWESNGQPENNYKTTPPVLDSDGSFFLVSKLTVDKSRWQQGNVFSCSVMHEALHNHYTQKSLSLSPGK
notes: Knob-in-hole heterodimer; also called TSHR260 2P2R huIgG1 Fc E233V/L234D/L235F/G236R/G237D/S239L/H268P/R292Q/S298G/T299A/A327L/L328A/A330H/E333I
Kd (FcγRIIB [3]): 3650 nM | binding result (FcγRIIA167R [7]): no binding (tested: about 2.4e-6 M) | binding result (FcγRIIA167H [8]): no binding (tested: about 2.4e-6 M)
